Assay results published in patent US20120165249A1.

Legend:
[1] = target: HIV-1 CA protein (capsid) (HIV-1); assay: cell-based or functional assay
[2] = target: HIV-1 gag polyprotein (HIV-1); assay: cell-based or functional assay

Substance: NYAD-1 (peptide)
- inhibition of mature-like particle formation from purified CA protein in vitro (EM) (fold molar equivalent) [1]: 1
- release of immature-like particles from gag-transfected 293T cells (p24 ELISA) (fold reduction at 50 µM) [2]: 72
- release of mature-like particles from gag-pol transfected 293T cells (p24 ELISA) (fold reduction at 50 µM) [2]: 67
